Laboratory results from patent publication US20140289906A1, “Compositions Having Dicamba Decarboxylase Activity and Methods of Use” (priority 2013, published 2014).

Assays:
[1] = GC/MS detection of 2,5-dichloro anisole (2,5-DCA), toluene trapping or head-space; type: biochemical; settings: purified protein, dicamba, toluene capturing
Protocol: Alternatively, dicamba decarboxylase activity can be monitored by measuring decarboxylation products other than CO2 using product detection methods. The decarboxylation product of dicamba, 2,5-dichloro anisole or 2,5-DCA (FIG. 1C), is a volatile compound with a flash point of 21° C. To capture this volatile compound for detection, 140 ul of toluene solution is added on top of 1 ml reaction mixture to form a trapping layer in a 1.5 ml eppendorf tube. […] The reaction is kept still at room temperature overnight before being vortex mixed and centrifuged at 14,000 rpm for 15 minutes. The top toluene phase is carefully removed using a micropipette and transferred into a 12×32 mm polypropylene vial (Vial 11 mm) from MicroLiter Analytical Supplies, Inc. (catalog number 11-5300-100). The vial is sealed with Crimp seal (11 mm with FEP/Nat Rubber) from MicroLiter Analytical Supplies, Inc. (catalog number 11-0020A) using a E-Z Crimper™ 11 mm from Wheaton Inc. 1 ul of the toluene mixture is taken from the sealed vials and injected in splitless mode into a GC/MS system for sample analysis (Agilent GC/MS system with a 6890A GC, a 5973N MSD and a CTC CombiPAL auto-sampler or with a 7890A GC, a 5975C MSD and an Agilent GC Sampler 80 auto-sampler). The GC parameters are: Agilent DB-5MS column (30 m length, 0.25 mm diameter, 0.25 um film) or equivalent; The GC inlet temperature, 250° C.; Carry gas, helium in constant flow mode (1.2 mL/min); The GC oven temperature program, initial temperature at 70° C. for 1 min, ramping to 200° C. at 15° C./min, and then ramping to 250° C. at 30° C./min. MS data acquisition is done in SIM (selected ion monitoring) mode, monitoring the positive ion at M/Z 176 for the molecular ion of […]. The solvent delay for MS acquisition is set at 4 min. Another method for detection of 2,5-DCA is a head-space GC/MS method. Briefly, reaction mixtures in 500 ul reaction volume are prepared in 1.5 ml 12×32 mm glass vials (Microliter Analytical Supplies, Cat#11-1200) for head space analysis. Glass vials are sealed with magnetic cap from MicroLiter Analytical Supplies, Inc. (catalog number 11-0030AT) using a E-Z Crimper™ 11 mm from Wheaton Industries Inc. The reaction is carried out at room temperature for various amount of time and stopped by heating at 95° C. for 5 min. The reaction vial is transferred to a agitator for incubation at 80° C. for 5 min at 500 rpm. With a syringe preheated at 80° C., 1000 uL of head space is injected with sample fill speed at 100 uL/sec. GC/MS parameters for headspace analysis are the same as for liquid sample analysis.

[2] = LC-MS/MS detection of 4-chloro-3-methoxy phenol; type: biochemical; settings: purified protein, dicamba
Protocol: The decarboxylated and chloro hydrolyzed product, 4-chloro-3-methoxy phenol (FIG. 1D), is measured using a LC-MS/MS analytical procedure. […] 10 ul is removed from the reaction mixture and mixed with 90 ul pre-chilled methanol followed by centrifugation at 14,000 rpm for 15 min at 4° C. 10 ul of the supernatant is then transferred into 170 ul ddH2O to achieve 5% methanol solution for injection. 50 ul of the prepared sample is injected into a 4000 Q Trap LC-MS/MS system for sample analysis. LC-MS/MS parameters are: Mobile Phase A, 2 mM ammonium acetate in water; Mobile Phase B, 2 mM ammonium acetate in methanol; Column, Aquasil, 100×2.1 mm, 3 μm, C18 column; Flow Rate, 0.6 ml/min. The MS/MS fragment 157/142 which is common to 4-chloro-3-methoxy phenol, 2-chloro-5-methoxy phenol, and 3-chloro-5-methoxy phenol is monitored at a retention time of 2.88 min.

[3] = Dicamba decarboxylation activity of computationally designed protein variants and parents (Tables 4, 5); settings: for dicamba decarboxylase activity (statement in the description): native proteins and designed variants, assay not specified
[4] = 14C assay: 14CO2 capture from [14C]-carboxyl-labeled dicamba with IPTG-induced recombinant E. coli cells; settings: for Enzymatic Detection level: dicamba decarboxylation activity
[5] = GC/MS detection of 2,5-dichloro phenol (2,5-DCP); kinetic determination; type: biochemical; settings: purified protein, dicamba
Protocol: The decarboxylated and demethylated product of dicamba, 2,5-dichloro phenol or 2,5-DCP (FIG. 1E) is measured using a GC/MS analytical procedure with either liquid injection after liquid/liquid extraction using toluene as the extraction solvent or gas injection using head space method. The head space sample analysis is carried out on an Agilent GC/MS system with a 6890A GC, a 5973N MSD and a CTC CombiPAL auto-sampler or with a 7890A GC, a 5975C MSD and an Agilent GC Sampler 80 auto-sampler with Phenomenex ZB-MultiResidue-1 column (30 m length, 0.25 mm diameter, 0.25 um film) or equivalent. GC/MS parameters are: GC inlet temperature, 200° C.; Carry gas, helium in constant flow mode (1.2 mL/min); Oven temperature program, 70° C. for 1 min and then ramp to 275° C. at 40° C./min. […] The reaction vial is transferred to a agitator for incubation at 90° C. for 4 min at 500 rpm. With a syringe preheated at 110° C., 1000 uL of head space is injected with sample fill speed at 100 uL/sec. A 2-mm diameter liner is used in sample inlet. The MS data acquisition is done in SIM (selected ion monitoring) mode. The positive ion at M/Z 162 for the molecular ion of 2,-5-DCP is monitored at retention time of 4.06 min. Solvent delay for MS acquisition is set at 3 min. GC/MS parameters for liquid sample analysis are the same as those for head space analysis, except that the volume of liquid injection is 1 uL.

[6] = 14C assay: 14CO2 capture from [14C]-carboxyl-labeled dicamba with purified protein; type: biochemical

B1: 121 (protein)
chain: MAIIDCHGHYTTTPKGVEDYRNAQKAAVAKDPSFKGEKGQVVVSDDEIRESIENNQLKMQRERGTDLTIFSPRWDAGGHHIGNEYTSQFWTEHQNDLIRRVCDLFPKNFAPVAQLPQSPGVDPAKSVPEIVRTVEQMGFIGINLNPDPSGGYWKDTSLADRAFYPIYEKMVEYDIPAMIHPRLACNACFHTGLSVGLGADTTGFQQLIMSDVFKDFPSLKIIIPHGGGAVPYHWGRFRGLMQDQGYAPLEESALKNIYFDTCVYHQRGIDLLLDIVPTQNILFASEMIGAVRGIDPETGHNFDDTKRYIDNNTALNAEEKAMIFEGNARRVFSRLKTD
modifications: Dicamba decarboxylase variant clone DC.12.014
2,5-DCA product detected [1]: detected | 4-chloro-3-methoxy phenol product detected [2]: not detected | dicamba decarboxylase activity (statement in the description) [3]: have dicamba decarboxylase activity | Enzymatic Detection level [4]: High | 2,5-DCP product detected [5]: not detected | CO2 product detected [6]: not detected

B2: 120 (protein)
chain: MAIIDCHGHYTTTPKGVETYRNAQKAAVAKDPSFKYEKGQVVVSDDEIRESIENNQLKMQRERGTDLTIFSPRSTAGGHHIGNEYTSQFWTEHQNDLIRRVCDLFPKNFAPVAQLPQSPGVDPAKSVPEIVRTVEQMGFIGINLNPDPSGGYWKDTSLADRAFYPIYEKMVEYDIPAMIHPRNACNDCFHTTGSHALGADTTGFQQLIMSDVFKDFPSLKIIIPHGGGAVPYHWGRFRGLMQDQGYAPLEESALKNIYFDTCVYHQRGIDLLLDIVPTQNILFASEMIGAVRGIDAETGHNFDDTKRYIDNNTALNAEEKAMIFEGNARRVFSRLKTD
modifications: Dicamba decarboxylase variant clone DC.12.002
2,5-DCA product detected [1]: detected | 4-chloro-3-methoxy phenol product detected [2]: not detected | dicamba decarboxylase activity (statement in the description) [3]: have dicamba decarboxylase activity | Enzymatic Detection level [4]: High | 2,5-DCP product detected [5]: not detected | CO2 product detected [6]: not detected

B3: 118 (protein)
chain: MAKKPRIDMHSHFFPRISEQEAAKFDANHAPWLQVSAKGDTGSIMMGKNNFQPVYQALWDPAFRIEEMDAQGVDVQVTCATPVMFGYTWEANKAAQWAERMNDFALEFAAHNPQRIKVLAQVPLQDLDLACKEASRAVAAGHLGIQIGNHLGDKDLDDATLEAFLTHCANEDIPILVHGTDMMGGQRMKKWGLPWLVALAAEVQLAILSLILSGAFERIPKSLKICFSHGGGSFAFLLGLVDEAWRHVDIVREDCPRPPSEYVDRFFVDSVGNPGALELLVSVMGEDRVMLGSDYPHTTGEQKIGGLVLSSNLGESAKDKIISGNASKFFNINV
modifications: Dicamba decarboxylase variant clone DC.5.033
2,5-DCA product detected [1]: detected | 4-chloro-3-methoxy phenol product detected [2]: not detected | dicamba decarboxylase activity (statement in the description) [3]: have dicamba decarboxylase activity | Enzymatic Detection level [4]: High | 2,5-DCP product detected [5]: not detected | CO2 product detected [6]: not detected

B4: 119 (protein)
chain: MAKKPRIDMHSHFFPRISEQEAAKFDANHAPWLQVSAKGDTGSIMMGKNNFQPVYQALWDPAFRIEEMDAQGVDVQVTCATPVMFGYTWEANKAAQWAERMNDFALEFAAHNPQRIKVLAQVPLQDLDLACKEASRAVAAGHLGIQIGNHLGDKDLDDATLEAFLTHCANEDIPILVHGWDMMGGQRMKKWGLYWLVAHHAEVQLAILSLILSGAFERIPKSLKICFSHGGGSFAFTLGWVDEAWRHVDIVREDCPRPPSEYVDRFFVDSVGNPGALELLVSVMGEDRVMLGSDYPLTTGEQKIGGLVLSSNLGESAKDKIISGNASKFFNINV
modifications: Dicamba decarboxylase variant cloneDC.5.034
2,5-DCA product detected [1]: detected | 4-chloro-3-methoxy phenol product detected [2]: not detected | dicamba decarboxylase activity (statement in the description) [3]: have dicamba decarboxylase activity | Enzymatic Detection level [4]: High | 2,5-DCP product detected [5]: not detected | CO2 product detected [6]: not detected

B5: 117 (protein)
chain: MAKKPRIDMHSHFFPRISEQEAAKFDANHAPWLQVSAKGDTGSIMMGKNNFRPVYQALWDPAFRIEEMDAQGVDVQVTCATPVMFGYTWEANKAAQWAERMNDFALEFAAHNPQRIKVLAQVPLQDLDLACKEASRAVAAGHLGIQIGNHLGDKDLDDATLEAFLTHCANEDIPILVHPWDMMGGQRMKKWMLPVLVAAPAEVQLAILSLILSGAFERIPKSLKICFAGGGGSFAFLLGIVDLAWRHRDIVREDCPRPPSEYVDRFFVDSLVFNPGALELLVSVMGEDRVMLGSDYPFPTGEQKIGGLVLSSNLGESAKDKIISGNASKFFNINV
modifications: Dicamba decarboxylase variant clone DC.5.008
2,5-DCA product detected [1]: detected | 4-chloro-3-methoxy phenol product detected [2]: not detected | dicamba decarboxylase activity (statement in the description) [3]: have dicamba decarboxylase activity | Enzymatic Detection level [4]: High | 2,5-DCP product detected [5]: not detected | CO2 product detected [6]: not detected

B6: 1 (protein, listed as Rhizobium sp.)
chain: MAQGKVALEEHFAIPETLQDSAGFVPGDYWKELQHRLLDIQDTRLKLMDAHGIETMILSLNAPAVQAIPDRRKAIEIARRANDVLAEECAKRPDRFLAFAALPLQDPDAATEELQRCVNDLGFVGALVNGFSQEGDGQTPLYYDLPQYRPFWGEVEKLDVPFYLHPRNPLPQDSRIYDGHPWLLGPTWAFAQETAVHALRLMASGLFDEHPRLNIILGHMGEGLPYMMWRIDHRNAWVKLPPRYPAKRRFMDYFNENFHITTSGNFRTQTLIDAILEIGADRILFSTDWPFENIDHASDWFNATSIAEADRVKIGRTNARRLFKLDGA
2,5-DCA product detected [1]: detected | 4-chloro-3-methoxy phenol product detected [2]: detected | dicamba decarboxylase activity (statement in the description) [3]: native dicamba decarboxylase activity | Percent Activity Improvement Over Parent (%) ([3]; parent (SEQ ID NO: 1 or SEQ ID NO: 41) = 100): 100% | Dicamba Decarboxylase Activity ([4]; IPTG-induced recombinant E. coli cells, 14CO2 from [14C]-carboxyl-labeled dicamba): High | decarboxylation activity of dicamba ([4]; among the 108 sequences tested, recombinant E. coli cell assay): showed decarboxylation activity of dicamba | Enzymatic Detection level [4]: High | 2,5-DCP product detected [5]: detected | CO2 product detected [6]: detected
